This is an account of results in US10800847.

For assay [1], the target named is HLA-A*8001 (A80) single antigen on Luminex beads (human). Nature of the assay: Luminex single antigen bead assay, iBeads vs regular beads, IVIg 1:4.
For assay [2], the target named is HLA-A*6901 (A69) single antigen on Luminex beads (human). Described as above.
Assay [3] addresses HLA-A*6802 (A68) single antigen on Luminex beads (human). The assay is described as above.
Assay [4] addresses HLA-B*0801 (B8) (human). Nature of the assay: Luminex iBeads (#6), IVIg diluted 1:4.
Assay [5] addresses HLA-B*1511 (B75) (human). In words: Luminex iBeads (#6), IVIg diluted 1:4.
For assay [6], the target named is HLA-B*1501 (B62) (human). In words: Luminex iBeads (#6), IVIg diluted 1:4.
Assay [7] has as its target HLA-B*1402 (B65) (human). In words: Luminex iBeads (#6), IVIg diluted 1:4.
Assay [8] has as its target HLA-B*1301 (B13) (human). Nature of the assay: Luminex iBeads (#6), IVIg diluted 1:4.
For assay [9], the target named is Serum albumin on negative control beads (HSA/BSA) (human or bovine). Nature of the assay: Luminex iBeads (#6), IVIg diluted 1:4.
The target in assay [10] is HLA-B*0702 (B7) (human). In words: Luminex iBeads (#6), IVIg diluted 1:4.
Assay [11] has as its target HLA-B*1516 (B63) (human). Nature of the assay: Luminex iBeads (#6), IVIg diluted 1:4.
Assay [12] concerns the target HLA-B*1510 (B71) (human). In words: Luminex iBeads (#6), IVIg diluted 1:4.
The target in assay [13] is HLA-B*1401 (B64) (human). Nature of the assay: Luminex iBeads (#6), IVIg diluted 1:4.
The target of assay [14] is HLA-B*1801 (B18) (human). In words: Luminex iBeads (#6), IVIg diluted 1:4.
The target of a further assay is HLA-B*1513 (B77) (human). Nature of the assay: Luminex iBeads (#6), IVIg diluted 1:4.
The target in assay [15] is HLA-B*1502 (B75) (human). In words: Luminex iBeads (#6), IVIg diluted 1:4.
The target in assay [16] is HLA-B*0801 (B8) (human). Nature of the assay: Luminex regular beads (#7), IVIg diluted 1:4.
Assay [17] addresses HLA-B*1511 (B75) (human). Nature of the assay: Luminex regular beads (#7), IVIg diluted 1:4.
Assay [18] concerns the target HLA-B*1501 (B62) (human). In words: Luminex regular beads (#7), IVIg diluted 1:4.
Assay [19] concerns the target HLA-B*1402 (B65) (human). In words: Luminex regular beads (#7), IVIg diluted 1:4.
Assay [20] has as its target HLA-B*1301 (B13) (human). In words: Luminex regular beads (#7), IVIg diluted 1:4.
In assay [21] the target is HLA-B*0702 (B7) (human). In words: Luminex regular beads (#7), IVIg diluted 1:4.
Assay [22] deals with HLA-B*1516 (B63) (human). In words: Luminex regular beads (#7), IVIg diluted 1:4.
Assay [23] concerns the target HLA-B*1510 (B71) (human). In words: Luminex regular beads (#7), IVIg diluted 1:4.
The target of assay [24] is HLA-B*1401 (B64) (human). Nature of the assay: Luminex regular beads (#7), IVIg diluted 1:4.
A further assay concerns the target HLA-B*1302 (B13) (human). Nature of the assay: Luminex regular beads (#7), IVIg diluted 1:4.
The next assay deals with HLA-B*1503 (B72) (human). In words: Luminex regular beads (#7), IVIg diluted 1:4.
The target in assay [25] is HLA-B*1801 (B18) (human). In words: Luminex regular beads (#7), IVIg diluted 1:4.
The target in assay [26] is HLA-B*1502 (B75) (human). In words: Luminex regular beads (#7), IVIg diluted 1:4.
The target in assay [27] is Albumin on negative control beads (serum albumin, HSA/BSA) (human or bovine). Nature of the assay: Luminex, iBead MFI against regular bead MFI, 1:8.
Assay [28] concerns the target HLA-A*0301 (A3) on single antigen beads (human) (UniProt P04439). Nature of the assay: Luminex, iBead MFI against regular bead MFI, 1:8.
The target of assay [29] is HLA-Cw*0801 (Cw8) (human). In words: Luminex, regular beads (#7), 1:8.
Assay [30] concerns the target HLA-A*3201 (A32) single antigen on beads (human). In words: Luminex, iBead vs regular bead, IVIg 1:8.
For assay [31], the target named is HLA-A*4301 (A43) single antigen on beads (human). Nature of the assay: Luminex, iBead vs regular bead, IVIg 1:8.
In assay [32] the target is HLA-A*3002 (A30) single antigen on beads (human). Nature of the assay: Luminex, iBead vs regular bead, IVIg 1:8.
For assay [33], the target named is HLA-A*7401 (A74) single antigen on Luminex beads (human). In words: Luminex single antigen bead assay, iBeads vs regular beads, IVIg 1:8.
Assay [34] concerns the target HLA-A*6802 (A68) single antigen on Luminex beads (human). In words: Luminex single antigen bead assay, regular beads (#7), IVIg 1:8.
Assay [35] deals with HLA-Cw*0401 (Cw4) (human). Nature of the assay: Luminex, iBeads (#6), 1:8.
In assay [36] the target is HLA-Cw*0202 (Cw2) (human). In words: Luminex, iBeads (#6), 1:8.
Assay [37] addresses HLA-Cw*0102 (Cw1) (human). In words: Luminex, iBeads (#6), 1:8.
For assay [38], the target named is HLA-B*1516 (B63) (human). In words: iBead MFI against regular-bead MFI, IVIg diluted 1:8.
In assay [39] the target is HLA-A*6602 (A66) single antigen on beads (human). In words: Luminex, iBead vs regular bead, IVIg 1:8.
The target of assay [40] is HLA-A*4301 (A43) single antigen on beads (human). In words: Luminex single-antigen regular beads (#7), IVIg 1:8.
Assay [41] has as its target HLA-B*1501 (B62) (human). Nature of the assay: Luminex regular beads (#7), IVIg diluted 1:8.
Assay [42] addresses HLA-A*6802 (A68) single antigen on Luminex beads (human). Nature of the assay: Luminex single antigen bead assay, iBeads vs regular beads, IVIg 1:8.
Assay [43] addresses HLA-A*7401 (A74) single antigen on Luminex beads (human). Nature of the assay: Luminex single antigen bead assay, iBeads (#6), IVIg 1:8.

“IVIg Sandoglobulin (Novartis, Basel, Switzerland) (antibody)”: the figures for the Difference % (iBead MFI against regular bead MFI) in [1], in assay [2] and in [3] were 41%, 68% and 31%, respectively. For the same substance, the MFI was found to be 274 MFI with HLA-B*0801 (B8) (human) [4]; 552 MFI with HLA-B*1511 (B75) (human) [5]; 148 MFI in the assay with HLA-B*1501 (B62) (human) [6]; 152 MFI with HLA-B*1402 (B65) (human) [7]; 504 MFI with HLA-B*1301 (B13) (human) [8]; 667 MFI in assay [9]. Besides, the MFI is 436 MFI in the assay with HLA-B*0702 (B7) (human) [10]; 756 MFI in the assay with HLA-B*1516 (B63) (human) [11]; 271 MFI with HLA-B*1510 (B71) (human) [12]; 206 MFI in the assay with HLA-B*1401 (B64) (human) [13]; 114 MFI with HLA-B*1801 (B18) (human) [14]; 445 MFI in the assay with HLA-B*1513 (B77) (human). The MFI with HLA-B*1502 (B75) (human) [15] turned out to be 245 MFI; with HLA-B*0801 (B8) (human) [16], 233 MFI; with HLA-B*1511 (B75) (human) [17] it was 637 MFI; with HLA-B*1501 (B62) (human) [18], 0 MFI; with HLA-B*1402 (B65) (human) [19], 239 MFI; with HLA-B*1301 (B13) (human) [20], 524 MFI. The MFI with HLA-B*0702 (B7) (human) [21] turned out to be 309 MFI; with HLA-B*1516 (B63) (human) [22], 799 MFI; with HLA-B*1510 (B71) (human) [23] it was 240 MFI; in the assay with HLA-B*1401 (B64) (human) [24], 621 MFI; in the assay with HLA-B*1302 (B13) (human), 476 MFI; with HLA-B*1503 (B72) (human), 0 MFI. Besides, the MFI in the assay with HLA-B*1801 (B18) (human) [25] is 0 MFI; with HLA-B*1502 (B75) (human) [26] it was 157 MFI.

“Octagam (IVIg, Octapharma, Lachen, Switzerland) (antibody)”: the Difference % (iBead against regular bead) in [27] was -29%; in assay [28], -100%.

“IVIg Octagam (Octapharma, Lachen, Switzerland) (antibody)”: the MFI was determined as 4420 MFI in [29]; 1750 MFI in assay [34]; 2010 MFI in [35]; 1840 MFI in assay [36]; 1780 MFI in [37]. The Difference % (iBead MFI vs regular bead MFI) was -30% in assay [30], -11% in [31] and -31% in assay [32]. Also, the Difference % (iBead MFI against regular bead MFI) in assay [33] is -59%.

“IVIg GamaSTAN S/D (Talecris Biotherapeutics, USA) (antibody)”: the Difference % (iBead vs regular bead) with HLA-B*1516 (B63) (human) [38] is -7%. Moreover, the Difference % (iBead MFI vs regular bead MFI) in assay [39] came to 83%. The MFI in assay [40] turned out to be 1910 MFI; in assay [36], 8100 MFI.

As to IVIg Gamunex-C Lot NKLK1 (antibody), the MFI turned out to be 4540 MFI in assay [29]; 15 MFI with HLA-B*1501 (B62) (human) [41]; 1170 MFI in [40]; 1330 MFI in assay [34]; 515 MFI in assay [43]; 1060 MFI in assay [37]. The figures for the Difference % (iBead MFI vs regular bead MFI) in [30] and in assay [32] were 116% and 151%, respectively. Further, the Difference % (iBead MFI against regular bead MFI) in assay [42] came to 46%.

Regarding IVIg Gamunex-C Lot NKLG1 (antibody), in the assay with HLA-B*1516 (B63) (human) [38], the Difference % (iBead vs regular bead) was -36%. In addition, the Difference % (iBead MFI vs regular bead MFI) in assay [39] was 372%; in assay [31] it was 186%. For the same substance, the MFI turned out to be 0 MFI with HLA-B*1501 (B62) (human) [41], 3900 MFI in [43] and 3730 MFI in [35]. The Difference % (iBead MFI against regular bead MFI) in assay [42] was determined as 228%; in assay [33], 486%.
